The values that follow come from publication PMC3688683, “The N-Terminal Domains of Vps3 and Vps8 Are Critical for Localization and Function of the CORVET Tethering Complex on Endosomes” (PLoS ONE, 2013).

The target of this assay is T1, Vps3-TAP (full-length Vps3, C-terminal TAP tag) (yeast (genomic locus of BY4741/BY4733 …, UniProt P23643 1-1011)).
T1 construct: Vps3, CORVET-specific subunit, yeast, full-length; also called Vps3-Cbp; source: yeast, genomically TAP-tagged, in lysate; overexpressed and TAP-purified from yeast for the GST-Rab pull-down; not shown: TAP, C-terminal, kept
T1 sequence (looked up): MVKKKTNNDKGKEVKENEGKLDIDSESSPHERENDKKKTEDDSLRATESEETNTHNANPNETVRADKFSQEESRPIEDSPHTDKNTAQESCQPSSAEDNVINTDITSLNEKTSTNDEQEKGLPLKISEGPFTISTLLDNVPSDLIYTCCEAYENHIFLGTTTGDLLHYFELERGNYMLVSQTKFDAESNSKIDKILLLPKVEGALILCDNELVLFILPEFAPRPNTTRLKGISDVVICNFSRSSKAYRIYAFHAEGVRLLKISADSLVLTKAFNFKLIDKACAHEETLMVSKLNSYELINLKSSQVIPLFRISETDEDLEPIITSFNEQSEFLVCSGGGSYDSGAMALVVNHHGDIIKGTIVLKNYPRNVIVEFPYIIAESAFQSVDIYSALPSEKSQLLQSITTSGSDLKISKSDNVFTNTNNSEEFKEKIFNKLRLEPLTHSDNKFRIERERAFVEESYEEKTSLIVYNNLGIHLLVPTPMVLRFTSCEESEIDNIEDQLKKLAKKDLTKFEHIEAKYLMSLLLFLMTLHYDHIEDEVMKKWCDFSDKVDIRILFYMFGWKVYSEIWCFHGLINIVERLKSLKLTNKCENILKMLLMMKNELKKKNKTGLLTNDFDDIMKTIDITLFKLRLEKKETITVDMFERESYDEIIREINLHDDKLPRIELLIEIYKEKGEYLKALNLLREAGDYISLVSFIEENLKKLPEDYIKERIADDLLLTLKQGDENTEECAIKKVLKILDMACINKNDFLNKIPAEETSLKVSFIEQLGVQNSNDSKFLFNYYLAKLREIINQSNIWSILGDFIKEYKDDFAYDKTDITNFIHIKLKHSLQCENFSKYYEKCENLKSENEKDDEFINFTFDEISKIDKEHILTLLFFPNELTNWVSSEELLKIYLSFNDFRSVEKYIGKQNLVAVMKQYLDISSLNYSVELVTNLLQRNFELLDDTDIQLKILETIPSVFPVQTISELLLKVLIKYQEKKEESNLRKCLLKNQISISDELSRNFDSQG
The assay can be described thus: pull-down; 150 µg GST-Vps21 loaded with GTPγS (or GDP) on GSH-Sepharose; 35 µg yeast-purified Vps3-Cbp construct, 1 h at 4°C; 20 mM HEPES/NaOH pH 7.4, 150 mM NaCl, 2 mM MgCl2, 0.1% NP-40, 7 mg/ml BSA; eluted with 20 mM EDTA; blot against Cbp. The settings on record: both partners purified.

B1: GST-Vps21 (natural protein, yeast, UniProt P36017 1-210, looked up)
chain: MNTSVTSIKLVLLGEAAVGKSSIVLRFVSNDFAENKEPTIGAAFLTQRVTINEHTVKFEIWDTAGQERFASLAPMYYRNAQAALVVYDVTKPQSFIKARHWVKELHEQASKDIIIALVGNKIDMLQEGGERKVAREEGEKLAEEKGLLFFETSAKTGENVNDVFLGIGEKIPLKTAEEQNSASNERESNNQRVDLNAANDGTSANSACSC
notes: Vps21, endosomal Rab5-like GTPase of yeast; loaded with GTPγS or GDP before the pull-down; Held on GSH-Sepharose; nucleotide state set by loading with 1 mM GTPγS or GDP; also called Vps21-GTP; immobilized Vps21; source: recombinant
With B1, the binding result was “binds”.
